Blank lines part the entries; values can stand above or below the binder they belong to.
What was measured:
[1] = biological target: AD-PHF Tau (paired helical filament Tau isolated from Alzheimer's disease brains) (human (endogenous in AD brain)); experiment: SPR; AD-PHF fraction 11 amine-coupled to a CM5 chip (about 500 RU); full-length IgG 1-300 nM as analyte, 180 s injection, 1200 s dissociation; BIAcore T200, 25 °C; HBS-EP+ with additional 150 mM NaCl and 1.25% CM-Dextran; extrinsic affinity; 1:1 binding or bivalent analyte model
[2] = biological target: AD-PHF Tau (paired helical filament Tau isolated from Alzheimer's disease brains) (human (endogenous in AD brain))

Sequence of AD-PHF Tau (paired helical filament Tau isolated from Alzheimer's disease brains) (human (endogenous in AD brain)) (P10636 2-758): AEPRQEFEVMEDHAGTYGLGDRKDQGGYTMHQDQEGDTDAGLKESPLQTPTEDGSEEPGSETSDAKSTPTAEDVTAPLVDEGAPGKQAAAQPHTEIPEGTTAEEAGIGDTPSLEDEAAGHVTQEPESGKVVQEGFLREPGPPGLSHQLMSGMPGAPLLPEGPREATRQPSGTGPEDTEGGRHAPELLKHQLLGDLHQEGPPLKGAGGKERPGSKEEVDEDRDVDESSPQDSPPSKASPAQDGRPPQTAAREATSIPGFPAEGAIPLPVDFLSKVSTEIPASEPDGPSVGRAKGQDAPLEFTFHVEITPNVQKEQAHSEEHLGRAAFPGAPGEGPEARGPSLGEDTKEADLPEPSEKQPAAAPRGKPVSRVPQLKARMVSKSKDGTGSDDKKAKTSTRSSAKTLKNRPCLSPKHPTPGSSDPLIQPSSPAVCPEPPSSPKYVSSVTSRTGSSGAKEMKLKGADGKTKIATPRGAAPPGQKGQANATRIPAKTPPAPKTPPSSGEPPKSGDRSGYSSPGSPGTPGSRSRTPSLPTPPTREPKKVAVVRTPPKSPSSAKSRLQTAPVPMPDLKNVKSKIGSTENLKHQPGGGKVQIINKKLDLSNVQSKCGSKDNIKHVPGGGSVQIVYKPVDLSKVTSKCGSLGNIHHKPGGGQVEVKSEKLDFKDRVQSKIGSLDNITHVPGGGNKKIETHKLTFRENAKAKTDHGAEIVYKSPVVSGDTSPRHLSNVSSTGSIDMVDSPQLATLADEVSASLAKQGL

- Kd [1]: 0.12 nM
- koff [1]: 2.5e-05 s⁻¹
- kon [1]: 230000 M⁻¹ s⁻¹
B1: antibody A (antibody, V domains shown)
VH: EVHLVESGGALVKPGGSLKLSCAASGFSFSKYGMSWVRQTPDKRLEWVATISSSGSRTYYPDSVKGQFTISRDNAKNTLYLQMSSLKSEDTAMYYCSISWDGAMDYWGQGTSVTVSS
VL: DVLMTQTPLSLPVSLGDQASISCKSSQSIVHSNGNTYLEWYLQKPGQSPKLLVYKVSNRFSGVPDRFSGSGSGTDFTLKISRVEAEDLGTYYCFQGSLVPWAFGGGTKLEIK

- Kd [1]: 25.8 nM
- koff [1]: 0.00196 s⁻¹
- kon [1]: 730000 M⁻¹ s⁻¹
B2: antibody F (antibody, V domains shown)
VH: EVQLVQSGAEVKKPGESLKISCKGSGYTFSNYWIEWVRQMPGKGLEWMGEILPGSDSIKYEKNFKGQVTISADKSISTAYLQWSSLKASDTAMYYCARRGNYVDDWGQGTLVTVSS
VL: EIVLTQSPGTLSLSPGERATLSCRSSQSLVHSNQNTYLHWYQQKPGQAPRLLIYKVDNRFSGIPDRFSGSGSGTDFTLTISRLEPEDFAVYYCSQSTLVPLTFGGGTKVEIK

- neutralisation of AD-PHF Tau seeding of HEK293 cells expressing P301S Tau (TR-FRET of aggregated Tau), antibody 0.1 to 300 nM; effect only at the highest doses [2]: 74%
- Kd [1]: 3.1 nM
- koff [1]: 0.000117 s⁻¹
- kon [1]: 40000 M⁻¹ s⁻¹
B3: antibody B (antibody, V domains shown)
VH: EVKVEESGGGLVQPGGSMKLSCVVSGFTFSNYWVNWVRQSPEKGLEWVAQIRLKSDNYATHYEESVKGRFTISRDDSKSSVYLQMNNLRAEDSGIYYCTNWEDYWGQGTTLTVSS
VL: DIVLTQSPASLAVSLGQRATISCRASQSVSTSRYSYIHWYQQKPGQPPKLLIKYASNLESGVPARFSGSGSGTDFTLNIHPLEEEDAATYYCHHSWEIPLTFGAGTKLELK

— PMC6208734
